Test results: patent US20100144630

Tests used:
[1] = system: heat-inactivated alpha-1 antitrypsin
[2] = system: alpha-1 antitrypsin (native, not heat-inactivated)

Elastase
elastase activity: hydrolysis of N-Succinyl-Ala-Ala-Ala-p-nitroanalide, absorbance at 410 nm [1]: combining HIAAT with elastase produced a curve similar to that of elastase alone. This demonstrated that HIAAT possessed no detectable elastase neutralizing activity
elastase activity: hydrolysis of N-Succinyl-Ala-Ala-Ala-p-nitroanalide, absorbance at 410 nm [2]: Combining native (NOT heat-inactivated) AAT ablated elastase processing of the N-Succinyl-Ala-Ala-Ala-p-nitroanalide substrate and blocked the increase in A410 nm
